Test results: patent publication US20060134638, “Error reduction in automated gene synthesis” (Blue Heron Biotechnology, Inc., published 2006)

T1: MutS (TaqMutS) (Thermus aquaticus, UniProt Q56215 Q56215:1-811)
T1 sequence: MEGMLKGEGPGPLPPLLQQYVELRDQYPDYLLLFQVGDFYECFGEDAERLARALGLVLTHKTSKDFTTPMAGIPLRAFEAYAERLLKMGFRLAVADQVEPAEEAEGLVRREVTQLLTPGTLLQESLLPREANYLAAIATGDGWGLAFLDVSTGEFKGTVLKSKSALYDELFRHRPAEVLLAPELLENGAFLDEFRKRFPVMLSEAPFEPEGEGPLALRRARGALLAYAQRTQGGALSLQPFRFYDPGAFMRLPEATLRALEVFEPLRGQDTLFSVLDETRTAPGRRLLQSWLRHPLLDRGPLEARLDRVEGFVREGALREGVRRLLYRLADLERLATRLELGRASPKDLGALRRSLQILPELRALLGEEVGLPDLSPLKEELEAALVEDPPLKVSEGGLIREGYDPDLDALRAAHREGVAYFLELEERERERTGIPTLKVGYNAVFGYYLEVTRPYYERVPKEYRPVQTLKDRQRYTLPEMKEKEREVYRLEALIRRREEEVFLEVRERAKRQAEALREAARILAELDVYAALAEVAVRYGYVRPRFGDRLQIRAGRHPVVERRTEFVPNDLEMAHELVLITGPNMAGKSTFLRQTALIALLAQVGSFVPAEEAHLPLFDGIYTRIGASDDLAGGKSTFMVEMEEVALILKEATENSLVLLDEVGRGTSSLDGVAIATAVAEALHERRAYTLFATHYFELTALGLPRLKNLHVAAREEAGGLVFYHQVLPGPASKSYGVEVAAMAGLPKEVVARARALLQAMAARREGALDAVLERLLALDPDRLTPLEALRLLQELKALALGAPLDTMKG


Tests used:
[1] = target: T1, MutS (TaqMutS); conditions: error frequency 1/212 to 1/1593; 500 nM MutS, 40 nM DNA, 60 C
[2] = target: T1, MutS (TaqMutS); assay: homoduplex recovered in flow-through; white:blue ratio shifted 1:1 to 60:1; conditions: chain copies: 2; perfect duplex
Method: The 410 bp white:blue test heteroduplex was used to determine the best conditions for separation of a model A or T deletion heteroduplex from perfectly matched homoduplex molecules using TaqMutS. A defined ratio of heteroduplex and homoduplex 410 bp fragments were incubated with TaqMutS at 60° C. for 20 minutes and subsequently passed through enzyme removal columns (Micropure-EZ enzyme removers from Millipore). These columns are marketed as quick alternatives to phenol/chloroform methods for removing proteins from DNA. The aim was to retain the TaqMutS protein bound to heteroduplex DNA in the column and retrieve the homoduplex DNA in the flow-through.

| Molecule | activity (% errors removed) [1] | binding result [2] |
| --- | --- | --- |
| 354 bp synthetic DNA, error-containing population | > 85 |  |
| 410 bp AflIII/EcoRI homoduplex (pUC121) (dsDNA) DNA 1: GAAGAGCGCCC DNA 2: GGGCGCTCTTC |  | no binding |
